Molecular target: TAX peptide, a peptide of the human T-cell leukemia virus type I peptide on HLA-A2 (human)
Assay: data from Cole et al. (2013); the method is not told in this article; the reference is the unmutated A6-TCR

A6-TCR with mutated CDR3 beta loop (PDB 4FTV)
fold enhancement of binding over the parent A6-TCR: 1000 fold
